Results from US6545128 (BURNHAM INSTITUTE, dated 2003).

Target: T1, 35S-labeled in vitro translated HA-tagged BI-2 (human, UniProt Q9NZS9 1-450, 35S-labeled methionine (in vitro translation))
T1 construct: Made by TNT rabbit reticulocyte in vitro transcription/translation; also called HA-BI-2; not shown: three copies of the HA tag at the N-terminus (vector pSN503)
T1 sequence: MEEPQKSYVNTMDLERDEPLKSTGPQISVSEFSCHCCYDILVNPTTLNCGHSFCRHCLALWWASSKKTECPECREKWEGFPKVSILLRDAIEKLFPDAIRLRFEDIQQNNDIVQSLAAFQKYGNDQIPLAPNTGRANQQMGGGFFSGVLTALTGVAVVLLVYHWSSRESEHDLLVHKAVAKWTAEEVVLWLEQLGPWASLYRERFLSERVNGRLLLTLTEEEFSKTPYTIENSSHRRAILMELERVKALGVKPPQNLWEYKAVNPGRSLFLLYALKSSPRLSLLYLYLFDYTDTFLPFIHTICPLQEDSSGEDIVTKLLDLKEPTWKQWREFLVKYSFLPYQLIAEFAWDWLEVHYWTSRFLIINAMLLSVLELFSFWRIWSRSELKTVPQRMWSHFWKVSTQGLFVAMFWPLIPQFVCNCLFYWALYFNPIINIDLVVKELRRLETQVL
Assay: GST pull-down: about 5 ug GST fusion protein on glutathione SEPHAROSE, 35S-labeled in vitro translated HA-BI-2, SDS-PAGE and autoradiography
Protocol: Approximately 5 µg of the following fusion proteins, including GST control, GST-CD40 cytosolic domain, GST-Bcl-2, GST-Bax or GST-BI-2, were immobilized on glutathione SEPHAROSE, then 8 µl of ^35S-labeled in vitro translated HA-tagged BI-2 in binding buffer was added. After incubation at 4° C. for 2 hr, the beads were washed 5× with binding buffer and the associated proteins were eluted in Laemli sample buffer and analyzed by SDS-PAGE (10% gel). As a control, ^35S-labeled BI-2 was loaded directly into the gel, using one-quarter the amount employed for the binding experiments. Following electrophoresis, the gels were dried and exposed to X-ray film.

binding result: no binding
B1: GST-CD40 cytosolic domain (other, UniProt P25942 216-277, looked up)
chain: KKVAKKPTNKAPHPKQEPQEINFPDDLPGSNTAAPVQETLHGCQPVTQEDGKESRISVQERQ
notes: domain: cytosolic domain; Unrelated control protein; not shown: glutathione S-transferase (GST) fusion partner
